Test results as given in PMC5327507, “Enhancing the thermostability of α-L-rhamnosidase from Aspergillus terreus and the enzymatic conversion of rutin to isoquercitrin by adding sorbitol” (BMC Biotechnology, 2017).

Tested on: C[C@@H]1O[C@@H](Oc2ccc([N+](=O)[O-])cc2)[C@H](O)[C@H](O)[C@H]1O
Experiment: purified protein
Conditions: pH 6.5, 65 °C, no additives

Substance: α-L-rhamnosidase from A. terreus (Rha; synthetic gene MRha; RASE) (Aspergillus terreus)
- Km: 481 ± 10 µM
